Assay results as given in publication PMC6628147.
Values joined by “and” are separate entries in the source; they are usually repeats but may differ in a detail not shown here. Equal values may be shown once.

Tests used:
Assay in all cases: EMSA
Details in all cases: EMSA: 1 nM 6-FAM DNA, 0-1.28 uM protein, 1 h at 37 C, binding buffer not stated; 6% PAGE in 40 mM Tris pH 7.6, 20 mM acetic acid, 1 mM EDTA at 4 C (effectors …)
[1] = tested on: CatM-His (Acinetobacter baylyi ADP1)
[2] = tested on: CatM(I18F,K38N)-His (Acinetobacter baylyi ADP1)
[3] = tested on: BenM-DBDCatM(F293Y,H160R)-His (Acinetobacter baylyi ADP1)
[4] = tested on: BenM-DBDCatM-His (Acinetobacter baylyi ADP1)

Substance	Kd [1]	Kd [2]	Kd [3]	Kd [4]
PbenA operator-promoter	70 nM and 71 nM (2×) and 67 nM	42 nM and 32 nM (2×) and 34 nM	1 nM and 4 nM (2×) and 2 nM	
PcatB operator-promoter	11 nM and 19 nM (2×) and 10 nM		3 nM	1 nM and 3 nM (2×) and 4 nM
